Laboratory results: paper PMC4889933 (Nucleic Acids Research, 2016)

T1: LigD protein of B. subtilis (LigD_(Bsub)), C-terminal His6 (B. subtilis, UniProt O34398 1-611)
T1 sequence (looked up): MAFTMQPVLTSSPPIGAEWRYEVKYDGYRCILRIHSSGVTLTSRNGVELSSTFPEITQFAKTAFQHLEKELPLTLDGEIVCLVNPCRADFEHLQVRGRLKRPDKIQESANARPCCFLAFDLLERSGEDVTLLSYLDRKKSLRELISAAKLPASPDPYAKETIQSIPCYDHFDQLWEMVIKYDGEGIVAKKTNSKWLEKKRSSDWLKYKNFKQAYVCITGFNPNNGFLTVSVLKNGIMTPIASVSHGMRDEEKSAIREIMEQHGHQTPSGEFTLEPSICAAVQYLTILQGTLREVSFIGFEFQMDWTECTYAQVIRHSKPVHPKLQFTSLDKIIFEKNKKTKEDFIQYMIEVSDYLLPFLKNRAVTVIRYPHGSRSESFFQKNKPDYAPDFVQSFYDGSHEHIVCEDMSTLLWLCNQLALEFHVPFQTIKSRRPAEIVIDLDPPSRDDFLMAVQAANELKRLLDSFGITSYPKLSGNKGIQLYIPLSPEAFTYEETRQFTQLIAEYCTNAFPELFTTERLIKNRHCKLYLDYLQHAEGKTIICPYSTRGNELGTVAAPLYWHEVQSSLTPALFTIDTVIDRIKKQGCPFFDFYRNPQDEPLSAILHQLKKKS


How the values were obtained:
[1] = molecular target: the molecule itself; experiment: cross-linking
[2] = molecular target: T1, LigD protein of B. subtilis …; experiment: SPR

Row | Kd [2] | Binder | stoichiometry N [1]
1 | 11 µM | KuΔexCter, Ku_(Bsub) truncated of the extended Cter (M18 to P277 of NP_389224.1), N-terminal His6 (domain or fragment, B. subtilis 168, UniProt O34859 18-277, looked up) MHTMWKGSISFGLVNIPIKLYAATEDKDIKLRSLHKEDHAPIKYEKVCTNCEKTLSPDEIVKGYEYVKGKYVVLTDEDLKSLKQEHEEKAVEIVDFVQLQEIDPIYFNRSYFVGPGDNGTKAYTLLREALRSTGKIGIANMTIRSKQQLAILRVYENCIVMESIHYPDEVRSAAQVPGVPDQSNVNDKELQTAITLIDELTAKFEPEKYEDTYRQALLQRVNDKLENKETAVTPDKAPPREDVIDLVSALQASIDRTRRP | 2
2 |  | Ku core, Ku_(Bsub) truncated of the entire C-terminal domain (M18 to P256 of NP_389224.1), N-terminal His6 (domain or fragment, B. subtilis 168, UniProt O34859 18-256, looked up) MHTMWKGSISFGLVNIPIKLYAATEDKDIKLRSLHKEDHAPIKYEKVCTNCEKTLSPDEIVKGYEYVKGKYVVLTDEDLKSLKQEHEEKAVEIVDFVQLQEIDPIYFNRSYFVGPGDNGTKAYTLLREALRSTGKIGIANMTIRSKQQLAILRVYENCIVMESIHYPDEVRSAAQVPGVPDQSNVNDKELQTAITLIDELTAKFEPEKYEDTYRQALLQRVNDKLENKETAVTPDKAPP | 2
